From patent publication US20230050846A1, “TREATMENT OF HEPATIC AND CARDIOVASCULAR DISORDERS” (LIFESEARCH, priority 2019, published 2023)

Target: T1, human F1Fo-ATPase (Homo sapiens, UniProt P06576)
T1 construct: Human F1Fo-ATPase was purified from HepG2 cells by immunocapture; endogenous in cells; host or cells: HepG2 cells; complex isolated by immunocapture with anti-ATP synthase antibody 12F4AD8AF8 (#ab109867, Abcam)
Test: F1-ATPase activity assay (NADH-coupled, purified enzyme)
Type: biochemical
Conditions: 1 μM
Excerpt: The mature human IF1 protein (SEQ ID NO: 5) was chemically synthesized by GenScript (Piscataway, N.J., USA) at >80% purity. The peptides derived from the mature human IF1 sequence (IF1-1-60, IF1-10-56, IF1-10-47) were produced by BachemAG (Bubendorf, Switzerland) with >90% purity.
Human F1Fo-ATPase was purified from HepG2 cells by immunocapture using mouse monoclonal anti-ATP synthase antibody (12F4AD8AF8, #ab109867, Abcam) according to manufacturer's instructions.
Measurement of F1-ATPase activity was assayed as previously described. Briefly, 10 μg of F1Fo-ATPase was prepared into 50 μL of activity assay buffer (10 mM HEPES, 150 mM NaCl, 5 mM KCl, 5 mM MgCl2, 0.5 mM phosphoenolpyruvate, 250 μM NADH, 100 μM ATP, 20 U lactate dehydrogenase, 120 U pyruvate kinase). The mixture was incubated at 37° C. for 30 min. Then the F1-ATPase activity was measured in a 96-well microplate by adding 5 μL of the mixture (1 μg of F1Fo-ATPase per point) per well to 200 μL of activity assay buffer at 37° C., and by adding 5 μL of buffer with or without peptide (1 μM each). The reduction in the absorbance of NADH was measured at 340 nm for 5 min with a Varioskan™ Flash Multimode Reader (Thermo Fisher Scientific). A slope was calculated for each well and the results expressed as a percentage of the control slope.

- inhibition of F1-ATPase activity as compared to control: 96%
B1: IF1: mature human IF1 protein (SEQ ID NO: 5), chemically synthesized, natural inhibitor of F1-ATPase (protein, listed as Homo sapiens)
chain: GSDQSENVDRGAGSIREAGGAFGKREQAEEERYFRAQSREQLAALKKHHEEEIVHHKKEIERLQKEIERHKQKIKMLKHDD
